Two molecules from patent publication US20040171105A1 (published 2004) can be followed below.

The target in experiment [1] is T1, GST fusion form of full-length human cIAP1 (human, UniProt Q13490 1-618).
T1 construct: Full-length cIAP1 fused to GST, expressed in E. coli BL21(DE3); also called GST-cIAP1; full-length cIAP1 (GST-fused); not shown: N-terminal glutathione S-transferase of pGEX-4T-2 with thrombin cleavage site
Description: GST pulldown on Glutathione Sepharose beads, Western blot (anti-GST, anti-Penta-His). The procedure: To examine whether the differential in catalytic efficiency between Omi WT and OmiΔ8 was due to different binding affinities to IAPs, a GST-based pulldown assay was used to monitor the IAP binding affinities of Omi WT and OmiΔ8. Full-length cIAP1 (50 nM) was incubated with 100 nM of Omi WT and Omi mutants for 20 minutes at 4° C. in 50 μl of PBST. The samples were then incubated with 20 μl of Glutathione Sepharose beads (Amersham Biosciences, Piscataway, N.J.) for 30 minutes at 4° C. The beads were precipitated by centrifugation and washed briefly with 1.4 ml×3 of PBST. The proteins bound to the beads and left in the supernatant were separately mixed with SDS sample loading buffer and resolved by SDS-PAGE, then transferred to a nitrocellulose filter. The upper part of the filter was probed with an antibody against GST and the lower part with an antibody against Penta-His.
On the technique in general: In western blotting, separated proteins are transferred to a membrane and probed.

Experiment [2] has as its target T2, Omi WT (wild-type mature Omi/HtrA2, C-terminal hexa-His tagged, recombinant from E. coli) (Homo sapiens (humans), UniProt O43464 134-458).
T2 construct: Any N-terminal Met from Nde I cloning is not discussed for the bacterial protein; also called wild-type Omi; PRSS25
T2 sequence: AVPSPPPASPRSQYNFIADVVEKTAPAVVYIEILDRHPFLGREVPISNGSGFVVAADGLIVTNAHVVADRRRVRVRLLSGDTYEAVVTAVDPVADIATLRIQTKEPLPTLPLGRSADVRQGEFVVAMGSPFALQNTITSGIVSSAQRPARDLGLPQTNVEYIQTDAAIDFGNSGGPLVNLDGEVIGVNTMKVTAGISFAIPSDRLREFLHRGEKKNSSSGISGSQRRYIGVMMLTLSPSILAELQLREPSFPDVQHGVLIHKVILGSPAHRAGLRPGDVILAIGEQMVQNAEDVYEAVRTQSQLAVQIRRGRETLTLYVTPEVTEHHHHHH
As to the kind of experiment: immunoprecipitation assay (data not shown).

The target in experiment [3] is T1, GST fusion form of full-length human …. As to the kind of experiment: cell-based or functional assay.

T1 sequence (Q13490 whole entry, the tested form may be a part): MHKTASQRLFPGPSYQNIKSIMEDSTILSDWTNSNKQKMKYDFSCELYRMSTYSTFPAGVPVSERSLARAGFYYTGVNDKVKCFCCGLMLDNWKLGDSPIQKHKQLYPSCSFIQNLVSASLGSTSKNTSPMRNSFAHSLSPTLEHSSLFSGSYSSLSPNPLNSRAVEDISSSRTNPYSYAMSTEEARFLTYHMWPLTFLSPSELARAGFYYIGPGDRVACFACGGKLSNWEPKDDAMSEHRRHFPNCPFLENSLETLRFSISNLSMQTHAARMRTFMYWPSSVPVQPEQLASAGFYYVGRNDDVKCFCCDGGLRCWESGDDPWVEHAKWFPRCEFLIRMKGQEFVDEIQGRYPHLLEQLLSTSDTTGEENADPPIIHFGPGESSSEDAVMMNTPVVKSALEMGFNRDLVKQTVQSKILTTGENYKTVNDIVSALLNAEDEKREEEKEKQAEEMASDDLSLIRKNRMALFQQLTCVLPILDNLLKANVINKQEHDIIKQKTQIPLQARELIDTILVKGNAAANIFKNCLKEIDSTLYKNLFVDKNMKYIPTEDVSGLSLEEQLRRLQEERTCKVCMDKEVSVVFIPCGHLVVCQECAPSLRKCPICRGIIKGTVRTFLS

B1: OmiΔ8 (Omi without the AVPS tetrapeptide, C-terminal hexa-His tagged) (enzyme)
chain: PPPASPRSQYNFIADVVEKTAPAVVYIEILDRHPFLGREVPISNGSGFVVAADGLIVTNAHVVADRRRVRVRLLSGDTYEAVVTAVDPVADIATLRIQTKEPLPTLPLGRSADVRQGEFVVAMGSPFALQNTITSGIVSSAQRPARDLGLPQTNVEYIQTDAAIDFGNSGGPLVNLDGEVIGVNTMKVTAGISFAIPSDRLREFLHRGEKKNSSSGISGSQRRYIGVMMLTLSPSILAELQLREPSFPDVQHGVLIHKVILGSPAHRAGLRPGDVILAIGEQMVQNAEDVYEAVRTQSQLAVQIRRGRETLTLYVTPEVTEHHHHHH
notes: The name Δ8 may mean that 8 residues were deleted in the tested construct; also called Omi?8; OmiΔAVPS
Consider B1, for which the binding result in experiment [1] is reported as “no binding (tested: 100 nM Omi mutant with 50 nM cIAP1)”.

B2: Smac (purified recombinant) (other, UniProt Q9NR28 56-239, looked up)
chain: AVPIAQKSEPHSLSSEALMRRAVSLVTDSTSTFLSQTTYALIEAITEYTKAVYTLTSLYRQYTSLLGKMNSEEEDEVWQVIIGARAEMTSKHQEYLKLETTWMTAVGLSEMAAEAAYQTGADQASITARNHIQLVKLQVEEVHQLSRKAETKLAEAQIEELRQKTQEEGEERAESEQEAYLRED
notes: The construct is not described; also called Smac/DIABLO
As for B2, the binding result in experiment [2] is “no binding”. Also, the “relief of cIAP1 inhibition of caspase activity in HeLa extracts” value in experiment [3] was 200 nM.
